{"source": "patent US20050050591A1", "about": "(published 2005)", "binders": {"B1": {"name": "MtCycDm, novel D-type cyclin of Medicago truncatula (two-hybrid prey, GAL4 activation domain fusion) (other, not shown: large carriers)", "chain": "MIEEEQLPAILMPSDCELLCGEDSSEVLTGDLPECSSDLDSSSSSQLPSSSLFAEEEEDSIAVFIEHEFKFVPGFDYVSRFQSRSLESSTREEAIAWILKVHEYYGFQPLTAYLSVNYMDRFLDSRPLPGIKWMATATFICCMFVFSSKDGGPLVPSLLDFQIEGAKYIFQPRTMLIMELLVLTILDWRLRSITHLVSSVSLRATRFTGTFNHFIISRATEIILSNIRDASFLTYRPSCIAAAAILSAANEIPNWSFVNPEHAESWCEGLSKEKIIGCYELIQEIVSSNNRRNAPKVLPQLRVTARTTRWSTVSSLSSSPSSSSSPSYSLSYKKRKLNSCFWVDVDKGNSEGREKKQTR", "notes": "Tested only as a yeast two-hybrid fusion; The order GAL4 domain then insert follows the vector design; also called cyclin D of the invention; MTCYCDM gene product"}}, "target": "Cdc2MsB, A-type cyclin-dependent kinase of Medicago sativa (two-hybrid bait, GAL4 DNA binding domain fusion) (Medicago sativa, UniProt P04386 1-147; Q05006 1-294)", "assay": "yeast two-hybrid (growth on selective medium, beta-galactosidase)", "text": "FIG. 5. Interaction in a yeast two-hybrid assay of alfalfa Cdc2-type or Cdc2-related kinases and different D-type cyclins and myosin. The different Cdc2Ms kinase cDNAs are cloned in the pGBT9 bait vector and the cDNAs of the interacting partners in the pGAD424 activation domain vector. (A) Growth of PJ69-4a yeast cells transformed with expression vectors comprising the indicated protein coding sequences on the agar surface of a selective medium lacking tryptophan, leucine, adenine and histidine. The relative growth values were also determined in liquid cultures and are numerically indicated. (B) Quantification of β-galactosidase enzyme acitivity of yeast strains described in (A).\nThe yeast strain PJ69-4A [MATa trp1-901, leu2-3,112 ura3-52, his3-200 gal4delta, gal80delta GAL2-ADE2, LYS2:: GAL1-HIS3, met2::GAL7-lacZ] (James et al. 1996), which contains three reporter genes (HIS3, ADE2 and lacZ), was used in library screening, growth tests and β-galactosidase assays. Transformation of yeast with pGBT9, pGAD424, pBD-GAL4 and pAD-GAL4 constructs was performed as described by Schiesti and Gietz (1989). The transformation mixture was plated on yeast dropout selection media either lacking leucine and tryptophan (SD-Trp-Leu) for testing the transformation efficiency or on media lacking leucine, tryptophan and histidine, for testing protein-protein interactions. […]", "data": [{"binder": "B1", "values": [{"measurement": "binding result", "result": "no binding"}]}]}
